According to PMC8701324 (2021):

Target: MRG15 MRG domain, amino acids 155-323 (UniProt Q9UBU8-2 155-323)
Assay: FP

MRG15 MRG domain, amino acids 155-323, sequence (Q9UBU8 194-362): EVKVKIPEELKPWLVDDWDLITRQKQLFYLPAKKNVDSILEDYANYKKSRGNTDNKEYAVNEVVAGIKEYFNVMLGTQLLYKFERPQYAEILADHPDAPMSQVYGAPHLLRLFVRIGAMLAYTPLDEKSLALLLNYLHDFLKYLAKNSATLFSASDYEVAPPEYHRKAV

- Ki: 9.8 nM
Binder: MLSLKQLLSFLSITDFQLPDEDFGPLKLEKVKSC [6xHis-PALB2^597-630]
